Data taken from article PMC2938849.

Molecular target: Hsp104ΔM (yeast) (UniProt P31539)
Experiment: SEC

- stoichiometry N: 6
Substance: Hsp104ΔM (from UniProt P31539 1-908) (natural protein)
